The experiment deals with CslA-His12 (cellulose synthase-like protein CslA from Streptomyces lividans, full length, C-terminal 12-histidine tag) (Streptomyces lividans).

The values below come from publication PMC11022532.

Substance “Flag-tagged GlxA^12-261 (truncated GlxA lacking Region-2 and Domain 3) (domain or fragment)” had an activity (UDP release) of the CslA–GlxA^12-261 complex against the wild-type CslA–GlxA complex of 40%.
